For this data set the following is noted: Bacillus amyloliquefaciens; pH 6.3; 25 °C; Urea; Fluorescence; MES 50 mM; reversible: yes; whole UniProt chain shown.

One protein from FireProtDB (doi:10.1016/s0022-2836(99)80018-7) can be followed below.

B1: Ribonuclease wild type, P00648 (protein)
chain: MMKMEGIALKKRLSWISVCLLVLVSAAGMLFSTAAKTETSSHKAHTEAQVINTFDGVADYLQTYHKLPDNYITKSEAQALGWVASKGNLADVAPGKSIGGDIFSNREGKLPGKSGRTWREADINYTSGFRNSDRILYSSDWLIYKTTDHYQTFTKIR
Take B1: the denaturant m value came to 2.02 kcal/mol/M, the “denaturant midpoint (higher = more stable)” value stood at 4.58 M and the unfolding free energy was found to be 9.93 kcal/mol.
